Test results reported in patent US20250346683A1 (AstraZeneca / MedImmune, published 2025).

Biological target: T1, human endothelial lipase (EL) (human, UniProt Q9Y5X9 21-500)
T1 construct: also called human EL; LIPG gene product
T1 sequence (looked up): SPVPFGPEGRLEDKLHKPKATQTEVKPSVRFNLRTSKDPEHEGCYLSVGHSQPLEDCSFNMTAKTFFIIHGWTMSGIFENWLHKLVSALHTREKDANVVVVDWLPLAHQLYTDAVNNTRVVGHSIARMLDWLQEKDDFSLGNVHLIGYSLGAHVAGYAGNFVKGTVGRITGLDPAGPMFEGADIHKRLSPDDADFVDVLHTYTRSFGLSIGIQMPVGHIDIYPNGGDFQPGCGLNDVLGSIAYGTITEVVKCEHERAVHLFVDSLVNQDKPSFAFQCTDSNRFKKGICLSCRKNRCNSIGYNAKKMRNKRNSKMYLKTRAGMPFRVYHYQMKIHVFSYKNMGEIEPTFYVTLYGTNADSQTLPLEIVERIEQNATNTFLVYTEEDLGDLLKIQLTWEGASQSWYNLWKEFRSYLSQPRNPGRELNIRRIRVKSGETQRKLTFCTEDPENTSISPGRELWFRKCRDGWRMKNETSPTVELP
Assay: sandwich ECL immunoassay (MSD): MEDI5884 coated as capture, EL from plasma or reference standard as analyte, biotinylated anti-human EL antibody (OriGene) as detection
Method: Sandwich immunoassay was developed for the detection human EL utilizing ECL readout. An MSD (MesoScale Discovery) plate was coated with 5 μg/ml of MEDI5884, at 50 μl/well, incubated at 4° C. on a flat surface and subsequently washed 3× with 300 μl/well of ELISA Wash Buffer. The assay plate(s) were blocked with 150 μl/well of I Block Buffer (IBB) for ≥60 min on an orbital plate shaker at room temperature (RT). Reference standards (RS), quality control (QC) and negative control (NC), prepared in IBB, and test samples were added to the plates at 35 μl/well. Samples that had been previously tested determined the minimally required dilution ratio (MRD) as two (2) for plasma samples. The assay plate(s) were incubated at RT on a plate shaker with gentle shaking for 60 minutes±10 minutes. Unbound analyte was removed by washing the plate(s) with ELISA wash buffer. To detect the captured analyte, 1 μg/ml of biotinylated anti-human EL monoclonal antibody (OriGene) was added at 35 μl/well and incubated for an additional 60 minutes±10 minutes at RT on a plate shaker. Unbound detection antibody was removed by washing the plate(s). […] Plates were washed again and Read Buffer was added at 150 μl/well. Signal was read on a MSD sector imager instrument within 20 minutes of addition of the Read Buffer. […]

B1: MEDI5884 (antibody, human IgG4 S228P, kappa, V domains shown)
VH: QVQLVQSGSELKKPGASVKVSCKASGYTFTNYALNWVRQAPGQGLEWMGWINTYSGVGTYAGEFKGRFVFSLDTSVSTAYLQISSLKAEDTAVYYCARRGFYGRRFFDVWGKGTTVTVSS
VL: DIQLTQSPSSLSASVGDRVTITCKASQSVDYDVDSYMHWYQQKPGKAPKLLIYAASNLASGVPSRFSGSGSGTDFTFTISSLQPEDIATYYCQQTIEDPPTFGGGTKVEIKR
notes: It was coated on the MSD plate as the capture reagent
**Q.** Does B1 bind?
**A.** Result: binds
